This is an account of results in patent publication USRE47150 (Bayer, dated 2018).

Changes are numbered by the printed parent chain. Names and notes keep the numbering of the source. Like-named read-outs stand apart in the source and are kept apart here.

The target of assay [1] is T1, mouse tissue factor pathway inhibitor (TFPI) (mouse, UniProt O54819 29-289, limits assumed).
T1 construct: bought; also called mTFPI; murine TFPI
T1 sequence (looked up): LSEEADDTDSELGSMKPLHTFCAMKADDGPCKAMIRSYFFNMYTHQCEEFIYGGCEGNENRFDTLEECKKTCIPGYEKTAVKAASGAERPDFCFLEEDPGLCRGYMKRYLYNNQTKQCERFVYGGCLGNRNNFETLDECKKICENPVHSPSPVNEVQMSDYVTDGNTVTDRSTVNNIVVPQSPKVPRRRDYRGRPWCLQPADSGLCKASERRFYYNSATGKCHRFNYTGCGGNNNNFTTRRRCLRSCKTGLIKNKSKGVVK
Nature of the assay: SPR, TFPI immobilized. A general note: Surface plasmon resonance follows binding to a sensor surface in real time, without labels.

The target of assay [2] is T2, human tissue factor pathway inhibitor (TFPI) (human, UniProt P10646 29-304, limits assumed).
T2 construct: bought; also called hTFPI; human TFPI
T2 sequence (looked up): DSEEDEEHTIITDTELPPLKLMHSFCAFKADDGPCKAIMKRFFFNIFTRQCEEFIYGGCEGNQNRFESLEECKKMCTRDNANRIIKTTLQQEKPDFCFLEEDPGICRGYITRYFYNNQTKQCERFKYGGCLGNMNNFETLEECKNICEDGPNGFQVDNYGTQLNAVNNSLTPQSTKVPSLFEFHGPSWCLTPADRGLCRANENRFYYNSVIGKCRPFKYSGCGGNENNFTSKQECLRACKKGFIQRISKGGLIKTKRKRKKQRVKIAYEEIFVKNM
Description: SPR, TFPI immobilized.

The target in assay [3] is T1, mouse tissue factor pathway inhibitor …. Description: competitive ELISA. Background: ELISA stands for enzyme-linked immunosorbent assay.
The target in assay [4] is T2, human tissue factor pathway inhibitor …. Nature of the assay: competitive ELISA.
Assay [5] deals with recombinant TFPI of the FXa restoring assay (human, mouse or rat; not specified for Tables 9 and 10). Nature of the assay: cell-based or functional assay.
Assay [6] deals with T1, mouse tissue factor pathway inhibitor …. Nature of the assay: competitive ELISA. The source holds these as a separate data set.
For assay [7], the target named is T2, human tissue factor pathway inhibitor …. Description: competitive ELISA. This is another data set of the same source.
The target is the same in assay [8]. Description: SPR, TFPI immobilized. The source holds these as a separate data set.
Assay [9] concerns the target T1, mouse tissue factor pathway inhibitor …. Description: SPR, TFPI immobilized. This is another data set of the same source.

B1: 2A8 HC_S54F (Fab, V domains shown)
VH: QVQLVESGGGLVQPGGSLRLSCAASGFTFRSYGMSWVRQAPGKGLEWVSSIRGFSSSTYYADSVKGRFTISRDNSKNTLYLQMNSLRAEDTAVYYCARKYRYWFDYWGQGTLVTVSS
VL: DIELTQPPSVSVAPGQTARISCSGDNLRNYYAHWYQQKPGQAPVVVIYYDNNRPSGIPERFSGSNSGNTATLTISGTQAEDEADYYCQSWDDGVPVFGGGTKLTVLG
notes: also called 2A8-7
In assay [1], B1 had an Improvement of 1.69 fold, a Kd of 2.07 nM, a koff of 0.00183 s⁻¹ and an association rate constant (kon) of 884000 M⁻¹ s⁻¹. Moreover, in assay [2], the Improvement is 3.08 fold, the equilibrium dissociation constant (Kd) was determined as 0.727 nM, the koff was 0.00204 s⁻¹ and the kon was found to be 2.81e+06 M⁻¹ s⁻¹. In [3], this molecule showed a variant/wild-type of 3.1 ratio. This molecule showed a variant/wild-type in assay [4] of 6.5 ratio. For the same molecule, in assay [5], the “IC50, FXa restoring assay” value turned out to be 0.35 mg/L and the “Improvement vs parental, FXa restoring assay” value stood at 2 fold.

B2: 2A8-g200 (HC Q1E+R30S+S35D+S55R+S56G+K99L/LC D1S+I2Y+A13S+S21T+R28P+N29K+Y48F+N51V+E80M+S89A+D91W+D92S+G93S+V94T) (Fab, V domains shown)
VH: B1 VH with Q1E, R30S, S35D, F54S, S55R, S56G, K99L
VL: SYELTQPPSVSVSPGQTARITCSGDNLPKYYAHWYQQKPGQAPVVVIFYDVNRPSGIPERFSGSNSGNTATLTISGTQAMDEADYYCQAWWSSTPVFGGGTKLTVLG
Consider B2, for which the variant/HC_K99L in [6] was 13.3 ratio. For the same molecule, the variant/HC_K99L in assay [7] was determined as 18.3 ratio. Besides, in assay [8], the KD fold improvement came out at 31.7 fold, binding was characterised by a dissociation constant (Kd) of 0.0584 nM, the koff was found to be 3.61e-05 s⁻¹ and the kon was found to be 617000 M⁻¹ s⁻¹. Besides, in assay [9], the KD fold improvement stood at 27.3 fold, the Kd is 0.121 nM, the dissociation rate constant (koff) came out at 0.000139 s⁻¹ and the kon was 1.15e+06 M⁻¹ s⁻¹.

B3: 2A8-g216 (HC S31V+I51D+S55R+K99V/LC D1S+I2Y+A13S+S21T+R28P+N29K+Y48F+N51S+E80M+D91L+D92S+V94T+V96W) (Fab, V domains shown)
VH: B1 VH with S31V, I51D, F54S, S55R, K99V
VL: B2 VL with V51S, A89S, W91L, S93G, V96W
With B3, the variant/HC_K99L in assay [6] stood at 21.4 ratio. In assay [7], the variant/HC_K99L was 19.6 ratio. In [8], the KD fold improvement amounted to 50.7 fold, the Kd came out at 0.0365 nM, the koff was 5.29e-05 s⁻¹ and the kon was 1.45e+06 M⁻¹ s⁻¹. In assay [9], this molecule returned a KD fold improvement of 41.6 fold, a Kd of 0.0791 nM, a koff of 7.78e-05 s⁻¹ and a kon of 984000 M⁻¹ s⁻¹.

B4: 2A8-227 (HC S35D+K99L/LC Y48F+D91L+V96W) (Fab, V domains shown)
VH: B1 VH with S35D, F54S, K99L
VL: B1 VL with Y48F, D91L, V96W
Regarding B4, the variant/HC_K99L in [6] was found to be 18.2 ratio. For the same molecule, the variant/HC_K99L in assay [7] turned out to be 18.8 ratio. In [8], this molecule came in with a KD fold improvement of 49.4 fold, a dissociation constant (Kd) of 0.0375 nM, a koff of 0.000123 s⁻¹ and a kon of 3.28e+06 M⁻¹ s⁻¹. In assay [9], the KD fold improvement turned out to be 21.4 fold; the affinity, expressed as Kd, was 0.153 nM; the koff stood at 0.00106 s⁻¹; the kon was 6.91e+06 M⁻¹ s⁻¹.

B5: 2A8 LC_D91W (Fab, V domains shown)
VH: B1 VH with F54S
VL: B1 VL with D91W
notes: also called 2A8-17
With B5, in assay [1], the Improvement turned out to be 4.32 fold, binding was characterised by a dissociation constant (Kd) of 0.814 nM, the koff was found to be 0.00232 s⁻¹ and the association rate constant (kon) worked out at 2.86e+06 M⁻¹ s⁻¹. In addition, in assay [2], the Improvement amounted to 2 fold, the Kd stood at 1.12 nM, the koff stood at 0.00432 s⁻¹ and the kon turned out to be 3.86e+06 M⁻¹ s⁻¹. This molecule also returned a variant/wild-type in assay [3] of 4 ratio. The variant/wild-type in [4] was 7.4 ratio. Further, in assay [5], the “IC50, FXa restoring assay” value is 0.23 mg/L and the “Improvement vs parental, FXa restoring assay” value stood at 3 fold.

The term Kd denotes the concentration at which binding is half-saturated. What is called koff is the first-order rate constant of dissociation. What is called kon is the second-order rate constant of association. Lower therefore signals slow association.
